B1: human RSPO2 (residues 20-143, Fu1-2 domains) (ligand, UniProt Q6UXX9 20-143, looked up)
chain: HCQGNRWRRSKRASYVSNPICKGCLSCSKDNGCSRCQQKLFFFLRREGMRQYGECLHSCPSGYYGHRAPDMNRCARCRIENCDSCFSKDFCTKCKVGFYLHRGRCFDECPDGFAPLEETMECVE
notes: human RSPO2, Fu1-2 domains, UniProt Q6UXX9; no cleavage is described; Codon-optimised synthetic DNA in pEZT-BM; also called R-spondin 2; source: Expi293F, secreted into the medium, purified (Ni-NTA, SEC); also co-transfected in Expi293F with LGR4 and ZNRF3 and co-purified with them
B2: human ZNRF3 (residues 56-267, ECD-TMD) (domain or fragment, UniProt Q9ULT6 56-267, looked up)
chain: KETAFVEVVLFESSPSGDYTTYTTGLTGRFSRAGATLSAEGEIVQMHPLGLCNNNDEEDLYEYGWVGVVKLEQPELDPKPCLTVLGKAKRAVQRGATAVIFDVSENPEAIDQLNQGSEDPLKRPVVYVKGADAIKLMNIVNKQKVARARIQHRPPRQPTEYFDMGIFLAFFVVVSLVCLILLVKIKLKQRRSQNSMNRLAVQALEKMETRKF
notes: human ZNRF3, residues 56-267 (ECD-TMD), UniProt Q9ULT6; Cloned with the rabbit immunoglobulin heavy chain V signal peptide at the N-terminus in place of its own; no tag is named for this construct; also called Zinc and Ring Finger 3

Series [1] concerns the target human ZNRF3 (residues 56-267, ECD-TMD) (human) (UniProt Q9ULT6).
The target of series [2] is T1, human LGR4 (residues 1-822), ECD and TMD, expressed in ExpiSf9 cells (human, UniProt Q9BXB1 25-822).
T1 construct: signal peptide in the construct; human LGR4, residues 1-822 (ECD and TMD, without the ICD), UniProt Q9BXB1; no cleavage is described; also called Leucine-rich repeat-containing G protein-coupled receptor 4; apo LGR4; source: ExpiSf9 (baculovirus), membrane fraction solubilised in LMNG/CHS, purified (Ni-NTA, SEC)
The experiment in a line: cryo-EM structure; individually purified LGR4 and RSPO2 mixed at a 1:2 ratio for 3 hours at 4 °C, complex isolated by SEC (25 mM HEPES-NaOH pH 7.5, 0.15 M NaCl, 0.01% GDN); overall resolution 4.0 Å. The conditions noted are these: both partners purified. For orientation: Size exclusion chromatography separates by hydrodynamic size, large species first.

For series [3], the target named is B2. The experiment in a line: cryo-EM structure; LGR4, RSPO2 and ZNRF3 co-expressed in Expi293F, complex solubilised in LMNG/CHS and purified by anti-DYKDDDDK resin (FLAG on LGR4) and SEC in 0.01% GDN; two complexes in one sample, 1:1:2 (3.2 Å) and 2:2:2 (3.5 Å). The conditions noted are these: both partners purified.
The target in series [4] is T2, human LGR4 (residues 1-822), ECD and TMD, expressed in Expi293F cells (human, UniProt Q9BXB1 25-822).
T2 construct: signal peptide in the construct; human LGR4, residues 1-822 (ECD and TMD), UniProt Q9BXB1; no cleavage is described. pEZT-BM vector; not shown: FLAG, C-terminal, kept
The series is described as above. Particulars: both partners purified.

Series [5] deals with the molecule itself. The description is as above.

Molecule “full-length human LGR4 (CD4 TMD): TMD (7-TM, aa526-822) replaced with that of CD4 (1-TM) (from UniProt Q9BXB1 25-525; Q9BXB1 823-951) (receptor)” displayed an RSPO2-induced TOPFlash Wnt/β-catenin reporter activity in HEK293T cells (siRNA against LGR4 and LGR5; 5% Wnt3a-conditioned medium, 3 ng/mL RSPO2), against wild-type LGR4 in series [1] of 50 % reduction.

Broadly, the stoichiometry N is the number of molecules, sites or subunits per partner or assembly. Consider B1, for which the “stoichiometry N” value in series [2] is 1. In addition, the binding result in series [3] was “binds”.

In the case of B2, the binding result in series [4] is on record as “binds”. In series [5], the “stoichiometry N” value was found to be 2.

For the origin of these results see PMC12488874, “Structural insights into Wnt/β-catenin signaling regulation by LGR4, R-spondin, and ZNRF3” (Nature Communications, 2025).
